Patent publication US8840886B2, “Method of treating cancer with DLL4 antagonist and chemotherapeutic agent” (Regeneron Pharmaceuticals, Inc., priority 2009, dated 2014)

Experiments:
human HCT116 tumor cells = assay: HCT116 xenograft tumor growth, REGN421 with irinotecan (Example 6); type: in vivo, mouse; settings: REGN421 2 mg/kg sc (6 mg/kg total dose)
Procedure: Each mouse was implanted subcutaneously (sc) with 5×10^6 human HCT116 tumor cells. After the tumors were established in the mice (tumor size of ˜150 mm^3, 15 days after implantation), tumors were measured and randomized. The mice were then treated with hFc, REGN421, irinotecan or combination of REGN421 and irinotecan. A total of 30 mice were divided into 6 groups (n=5 per cohort). The first group was treated sc with hFc at 2 mg/kg; the second group was treated sc with REGN421 at 2 mg/kg; the third and fourth groups were treated ip with irinotecan at 7.5 and 25 mg/kg, respectively; the fifth group was treated sc with REGN421 at 2 mg/kg and ip with irinotecan at 7.5 mg/kg; and the sixth group was treated sc with REGN421 at 2 mg/kg and ip with irinotecan at 25 mg/kg. REGN421 was administered every 3-4 days starting on day 15 and mice received three doses total. Irinotecan was administered every 3-4 days starting on day 15 and mice received three doses total.
To assess the effects of REGN421 and irinotecan as single agents or in combination treatments, the changes in tumor size (volume) are measured, starting three days before the initial REGN421 treatment, and then on the day of each agent treatment (days 15, 19, 22) and thereafter every 3-4 days until tumors reach ˜600 mm^3 in size. In vivo tumor size is calculated using the formula (length×width^2)/2.

[1] = Phase I pharmacokinetics of REGN421, single 30-min IV infusion, ELISA (Example 8); type: in vivo, human; settings: mean
Procedure: REGN421 is currently being studied in a first-in-human trial. The primary objective of the study is to determine the recommended dose of REGN421 for future efficacy trials. The secondary objectives are to characterize the drug safety profile, its pharmacokinetics, immunogenicity, and pharmacodynamics, as well as preliminary evidence of efficacy. In this study, anti-hDll4 antibody REGN 421 is administered intravenously every 3 weeks to patients whose cancer has progressed on conventional therapy. The study design follows standard methodology for dose escalation and definition of dose-limiting toxicity. To date, 7 patients have been treated at 0.25 mg/kg/dose every three weeks, and 6 patients have been treated at 0.50 mg/kg/dose every three weeks. For the pharmacokinetic study, blood samples were taken at pre-dose, 0 hour, and post-dose 1, 2, 4 and 8 hours on Day 1, followed by Days 2, 3, 4, 8 and 15 of Cycle 1; and pre-dose, 0 hour on Day 1 of Cycles≧2, and post-treatment follow-up on Days 15, 30 and 60. Plasma/serum levels of REGN421 in the samples are measured by ELISA with an upper limit of quantification of 2.5 μg/mL and a lower limit of quantification of 0.039 μg/mL in the undiluted serum sample. The study is ongoing with the intent to administer higher doses, defined in the protocol as 1, 2, 4, and 7 mg/kg/dose.
The currently available data showing plasma pharmacokinetic parameters following single 30-min. Cmax: Maximum serum concentration of the drug; Tlast: Time to the last quantifiable concentration of the drug; Clast: Last quantifiable concentration of the drug; AUClast: Area under curve up to the last concentration of the drug; AUC: Total area under the curve (i.e., drug exposure); t1/2Z: Terminal half life; Vss: Volume of distribution at steady state; CL: Drug clearance rate. Values are: mean, (CV %), and [range] (a: median [range]).

[2] = test system: human A549 tumor cells (non-small cell lung cancer); assay: A549 NSCLC xenograft tumor growth, REGN421 with cisplatin (Example 2); type: in vivo, mouse; settings: REGN421 2 mg/kg sc (6 mg/kg total dose)
Procedure: The effect of REGN421 in combination with cisplatin on tumor growth was evaluated on tumors implanted in humanized Dll4 SCID mice, as described above. Each mouse was implanted subcutaneously (sc) with 5×10^6 human A549 tumor cells (non-small cell lung cancer or “NSCLC”). After the tumors were established in the mice (tumor size of 100-150 mm^3, approximately 29 days after implantation), tumors were measured, randomized and treated with hFc, REGN421, cisplatin or combination of REGN421 and cisplatin. A total of 36 mice were divided into 6 groups (n=6 per cohort). The first group was treated sc with hFc at 2 mg/kg; the second group was treated sc with REGN421 at 2 mg/kg; the third and fourth groups were treated ip with cisplatin at 2.5 and 4.5 mg/kg, respectively; the fifth group was treated sc with REGN421 at 2 mg/kg and ip with cisplatin at 2.5 mg/kg; and the sixth group was treated sc with REGN421 at 2 mg/kg and ip with cisplatin at 4.5 mg/kg. REGN421 was administered every 3-4 days starting on day 29 and mice received three doses total. Cisplatin was administered every 24 hours starting on day 29 and mice received two doses total.
To assess the effects of REGN421 and cisplatin as single agents or in combination we measured tumor size (volume), beginning three days before the initial REGN421 treatment, on the day of each agent treatment (days 29, 30, 33, 36) and thereafter every 3-4 days until tumors reached ˜600 mm^3 in size. In vivo tumor size was calculated using the formula (length×width^2)/2.

B1: REGN421: anti-hDll4 antibody comprising HCVR/LCVR combination of SEQ ID NO:116/118 (antibody, V domains shown)
VH: QVQLVESGGGVVQPGRSLRLSCAASGFTFSSYGMHWVRQAPGKGLEWVSFLWYDGTNKNYVESVKGRFTISRDNSKNMLYLEMNSLRAEDTAVYYCARDHDFRSGYEGWFDPWGQGTLVTVSS
VL: EIVLTQSPATLSLSPGERATLSCRASQSVSSYLAWYQQKPGQAPRLLIYDASNRATGIPARFSGSGSGTDFTLTISSLEPEDFAVYYCQHRSNWPPTFGGGTKVEIK
Human HCT116 tumor cells
  TGD: 9 days
[1]; 0.25 mg/kg IV, n = 7 patients
  AUC: 489 µg·h/mL
  AUClast: 452 µg·h/mL
[1]; 0.5 mg/kg IV, n = 2 patients
  AUC: 963 µg·h/mL
  AUClast: 759 µg·h/mL
[2]
  TGD: 8 days
